Each block holds one binder with its values, some of them ahead of it.
B1: vascular endothelial growth factor VEGF165 (ligand, UniProt P15692-4 27-191, looked up)
chain: APMAEGGGQNHHEVVKFMDVYQRSYCHPIETLVDIFQEYPDEIEYIFKPSCVPLMRCGGCCNDEGLECVPTEESNITMQIMRIKPHQGQHIGEMSFLQHNKCECRPKKDRARQENPCGPCSERRKHLFVQDPQTCKCSCKNTDSRCKARQLELNERTCRCDKPRR
notes: mature; also called VEGF ligand

Key:
[1] = molecular target: T1, flt-1 extracellular domain/IgG Fc chimera (flt-1/IgG) (human, UniProt P17948 27-758); assay: unlabeled VEGF titrated against 125I-VEGF165 binding to 1 ng immunoreactive flt-1/IgG on anti-Fc plates; 4-parameter fit (FIG. 5)
T1 construct: Secreted from CEN4 cells and used as conditioned medium quantified by Fc ELISA; also called intact flt-1/IgG chimeric VEGF receptor protein; native flt-1/IgG; not shown: Fc of human IgG1 (amino acids 216-443 of the Capon IgG gamma-1 heavy chain clone)
T1 sequence (P17948 other isoform, or with tags, fused parts or gaps mutant limits assumed): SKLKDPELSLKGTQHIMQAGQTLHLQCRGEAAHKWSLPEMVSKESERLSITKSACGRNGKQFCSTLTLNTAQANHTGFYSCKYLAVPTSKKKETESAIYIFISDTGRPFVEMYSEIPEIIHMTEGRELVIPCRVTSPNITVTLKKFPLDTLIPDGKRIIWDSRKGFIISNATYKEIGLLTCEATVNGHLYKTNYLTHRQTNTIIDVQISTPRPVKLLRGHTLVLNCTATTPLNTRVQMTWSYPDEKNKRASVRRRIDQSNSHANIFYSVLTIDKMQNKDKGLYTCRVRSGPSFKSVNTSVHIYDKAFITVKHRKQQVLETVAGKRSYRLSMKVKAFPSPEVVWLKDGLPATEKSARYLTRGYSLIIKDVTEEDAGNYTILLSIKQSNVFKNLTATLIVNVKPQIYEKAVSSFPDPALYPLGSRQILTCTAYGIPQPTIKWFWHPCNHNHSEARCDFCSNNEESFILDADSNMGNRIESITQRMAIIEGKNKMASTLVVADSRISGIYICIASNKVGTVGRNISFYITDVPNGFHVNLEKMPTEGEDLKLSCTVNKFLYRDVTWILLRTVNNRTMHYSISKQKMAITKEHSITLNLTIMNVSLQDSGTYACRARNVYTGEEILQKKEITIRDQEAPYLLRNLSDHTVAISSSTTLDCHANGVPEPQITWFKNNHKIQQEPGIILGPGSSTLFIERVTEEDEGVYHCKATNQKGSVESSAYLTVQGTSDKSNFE
Method: (§1) Binding assays with the soluble chimeric VEGF receptors generated in Example 1 above were performed essentially as described by Park et al., *J. Biol. Chem.* 269:25646–25654 (1994). […] Plates were blocked for 1 hr with 10% fetal bovine serum in PBS (buffer B). After removal of the blocking buffer, 100 µl of a binding cocktail was added to each well. […] The specific activity of the iodinated VEGF was 5.69 ×10^7 cpm/microgram. Incubation in the coated wells proceeded for 4 hrs at room temperature, followed by 4 washes with buffer B. Binding was determined by counting individual wells in a gamma counter. Data was analyzed using a 4-parameter non-linear curve fitting program (Kalidagraph, Abelbeck Software).
Binding assays were performed essentially as described above. […] This occurs at the point of inflection of the curve. […] Thus, the flt(1, 2, 3) deletion chimera behaves in a similar fashion to the intact flt-1/IgG chimeric protein with respect to binding to the VEGF ligand.

[2] = molecular target: T2, flt(1,2): flt-1 Ig-like domains 1 and 2 only fused to the Fc of IgG (human, UniProt P01857-1 104-330 = IgG part, limits assumed); assay: 125I-VEGF165 binding to chimeric protein captured on anti-human Fc coated plates (FIG. 4)
T2 construct: domain: Fc of IgG; The true C-terminal limit may therefore be 225
T2 sequence (P01857 other isoform, or with tags, fused parts or gaps limits assumed): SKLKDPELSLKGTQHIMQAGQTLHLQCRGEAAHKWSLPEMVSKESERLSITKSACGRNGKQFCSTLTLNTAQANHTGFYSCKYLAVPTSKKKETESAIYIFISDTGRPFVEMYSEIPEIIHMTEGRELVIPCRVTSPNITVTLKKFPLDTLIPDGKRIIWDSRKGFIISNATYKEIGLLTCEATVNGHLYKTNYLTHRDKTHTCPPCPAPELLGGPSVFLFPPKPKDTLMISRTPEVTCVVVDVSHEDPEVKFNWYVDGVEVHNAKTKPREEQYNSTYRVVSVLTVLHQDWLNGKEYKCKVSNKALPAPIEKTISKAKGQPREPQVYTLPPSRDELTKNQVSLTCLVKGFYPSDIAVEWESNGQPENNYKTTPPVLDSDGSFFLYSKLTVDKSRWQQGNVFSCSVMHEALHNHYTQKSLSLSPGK
Method: as §1

[3] = molecular target: T3, flt(2): flt-1 Ig-like domain 2 only fused to the Fc of IgG (human, UniProt P01857-1 104-330 = IgG part, limits assumed); assay: as above
T3 construct: domain: Fc of IgG
T3 sequence (P01857 other isoform, or with tags, fused parts or gaps limits assumed): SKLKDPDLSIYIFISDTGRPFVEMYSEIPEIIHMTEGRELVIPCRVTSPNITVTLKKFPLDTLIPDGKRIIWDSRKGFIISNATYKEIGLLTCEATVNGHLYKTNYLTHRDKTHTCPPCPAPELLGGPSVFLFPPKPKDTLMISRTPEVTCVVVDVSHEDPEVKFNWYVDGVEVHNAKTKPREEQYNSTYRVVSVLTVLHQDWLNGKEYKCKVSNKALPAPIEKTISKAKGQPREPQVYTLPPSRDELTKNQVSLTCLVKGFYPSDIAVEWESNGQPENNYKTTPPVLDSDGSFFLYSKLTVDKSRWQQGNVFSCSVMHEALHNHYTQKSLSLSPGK
Method: as §1

[4] = molecular target: T4, flt-1(2)/FLT4 chimeric receptor (human, UniProt P35916 25-1363); assay: saturation binding of 125I-VEGF to transiently transfected 293 cells, Scatchard analysis
T4 construct: Stably expressed in NIH 3T3 cells for thymidine incorporation; also called flt-1 domain 2/FLT4 chimeric receptor
Method: (§2) After preparation of these expression constructs, 293 cells were transfected with the constructs via DEAE-Dextran and transiently-expressing cells were analyzed for the ability to bind to the VEGF ligand. To detect binding of the VEGF ligand, a saturation binding assay was performed on transiently-expressing 293 cells expressing the intact FLT4 receptor, the flt-1 domain 2/FLT4 chimeric receptor, the flt-1 domains 1–3/FLT4 chimeric receptor, or the intact flt-1 receptor. […] The cell mixture was then layered over a 0.75 ml cushion of 30% sucrose, centrifuged for 10 minutes at maximum speed, and the pellet was recovered and counted in a gamma counter. […] The amount of counts added and the recovered counts bound were then subjected to scatchard analysis.

[5] = molecular target: B1; assay: as above
Method: as §2

[6] = molecular target: B1; assay: saturation binding of 125I-VEGF to transiently transfected 293 cells, background of non-transfected cells subtracted
Method: as §2

Binder: B1
- IC50 [1]: 1.89 ng/mL
- binding result [2]: no binding
- binding result [3]: no binding
- Kd [4]: ~0.0102 nM

- Kd [5]: ~0.0104 nM
B2: flt-1(1, 2, 3)/FLT4 chimeric receptor (receptor)
chain: YSMTPPTLSLKGTQHIMQAGQTLHLQCRGEAAHKWSLPEMVSKESERLSITKSACGRNGKQFCSTLTLNTAQANHTGFYSCKYLAVPTSKKKETESAIYIFISDTGRPFVEMYSEIPEIIHMTEGRELVIPCRVTSPNITVTLKKFPLDTLIPDGKRIIWDSRKGFIISNATYKEIGLLTCEATVNGHLYKTNYLTHRQTNTIIDVQISTPRPVKLLRGHTLVLNCTATTPLNTRVQMTWSYPDEKNKRASVRRRIDQSNSHANIFYSVLTIDKMQNKDKGLYTCRVRSGPSFKSVNTSVRVHENPFISVEWLKGPILEATAGDELVKLPVKLAAYPPPEFQWYKDGKALSGRHSPHALVLKEVTEASTGTYTLALWNSAAGLRRNISLELVVNVPPQIHEKEASSPSIYSRHSRQALTCTAYGVPLPLSIQWHWRPWTPCKMFAQRSLRRRQQQDLMPQCRDWRAVTTQDAVNPIESLDTWTEFVEGKNKTVSKLVIQNANVSAMYKCVVSNKVGQDERLIYFYVTTIPDGFTIESKPSEELLEGQPVLLSCQADSYKYEHLRWYRLNLSTLHDAHGNPLLLDCKNVHLFATPLAASLEEVAPGARHATLSLSIPRVAPEHEGHYVCEVQDRRSHDKHCHKKYLSVQALEAPRLTQNLTDLLVNVSDSLEMQCLVAGAHAPSIVWYKDERLLEEKSGVDLADSNQKLSIQRVREEDAGRYLCSVCNAKGCVNSSASVAVEGSEDKGSMEIVILVGTGVIAVFFWVLLLLIFCNMRRPAHADIKTGYLSIIMDPGEVPLEEQCEYLSYDASQWEFPRERLHLGRVLGYGAFGKVVEASAFGIHKGSSCDTVAVKMLKEGATASEHRALMSELKILIHIGNHLNVVNLLGACTKPQGPLMVIVEFCKYGNLSNFLRAKRDAFSPCAEKSPEQRGRFRAMVELARLDRRRPGSSDRVLFARFSKTEGGARRASPDQEAEDLWLSPLTMEDLVCYSFQVARGMEFLASRKCIHRDLAARNILLSESDVVKICDFGLARDIYKDPDYVRKGSARLPLKWMAPESIFDKVYTTQSDVWSFGVLLWEIFSLGASPYPGVQINEEFCQRLRDGTRMRAPELATPAIRRIMLNCWSGDPKARPAFSELVEILGDLLQGRGLQEEEEVCMAPRSSQSSEEGSFSQVSTMALHIAQADAEDSPPSLQRHSLAARYYNWVSFPGCLARGAETRGSSRMKTFEEFPMTPTTYKGSVDNQTDSGMVLASEEFEQIESRHRQESGFSCKGPGQNVAVTRAHPDSQGRRRRPERGARGGQVFYNSEYGELSEPSEEDHCSPSARVTFFTDNSY
notes: Stably expressed in NIH 3T3 cells for thymidine incorporation; also called flt-1 domains 1-3/FLT4 chimeric receptor

- binding result [6]: no binding
B3: intact FLT4 receptor (receptor)
chain: YSMTPPTLNITEESHVIDTGDSLSISCRGQHPLEWAWPGAQEAPATGDKDSEDTGVVRDCEGTDARPYCKVLLLHEVHANDTGSYVCYYKYIKARIEGTTAASSYVFVRDFEQPFINKPDTLLVNRKDAMWVPCLVSIPGLNVTLRSQSSVLWPDGQEVVWDDRRGMLVSTPLLHDALYLQCETTWGDQDFLSNPFLVHITGNELYDIQLLPRKSLELLVGEKLVLNCTVWAEFNSGVTFDWDYPGKQAERGKWVPERRSQQTHTELSSILTIHNVSQHDLGSYVCKANNGIQRFRESTEVIVHENPFISVEWLKGPILEATAGDELVKLPVKLAAYPPPEFQWYKDGKALSGRHSPHALVLKEVTEASTGTYTLALWNSAAGLRRNISLELVVNVPPQIHEKEASSPSIYSRHSRQALTCTAYGVPLPLSIQWHWRPWTPCKMFAQRSLRRRQQQDLMPQCRDWRAVTTQDAVNPIISLDTWTEFVQGKNKTVSKLVIQNANVSAMYKCVVSNKVGQDERLIYFYVTTIPDGFTIESKPSEELLEGQPVLLSCQADSYKYEHLRWYRLNLSTLHDAHGNPLLLDCKNVHLFATPLAASLEEVAPGARHATLSLSIPRVAPEHEGHYVCEVQDRRSHDKHCHKKYLSVQALEAPRLTQNLTDLLVNVSDSLEMQCLVAGAHAPSIVWYKDERLLEEKSGVDLADSNQKLSIQRVREEDAGRYLCSVCNAKGCVNSSASVAVEGSEDKGSMEIVILVGTGVIAVFFWVLLLLIFCNMRRPANADIKTGYLSIIMDPGEVPLEEQCEYLSYDASQWEFPRERLHLGRVLGYGAFGFVVEASAFGIHKGSSCDTVAVKMLKEGASASEHRALMSELKILIHIGNHLNVVNLLGACTKPQGPLMVIVEFCKYGNLSNFLRAKRDAFSPCAEKSPEQRGRFRAMVELARLDRRRPGSSDRVLFARFSKSEGGARRASPDQEAEDLWLSPLTMEDLVCYSFQVARGMEFLASRKCIHRDLAARNILLSESDVVKICDFGLARDIYKDPDYVRKGSARLPLKWMAPESIFDKVYTTQSDVMSFGVLLWEIFSLGASPYPGVQINEEFCQRLRDGTRMRAPELATPAIRRIMLNCWSGDPKARPAFSEVLEILGDLLQGRGLQEEEEVCMAPRSSQSSEEGSFSQVSTMALHIIQADAEDSPPSLQRHSLAARYYNWVSFPGCLARGAETRGSSRMKTFEEFPMTPTTYKGSVDNQTDSGMVLASEEFEQIESRHRQESGFSCKGPGQNVAVTRAHPDSQGRRRRPERGARGGQVFYNSEYGELSEPSEEDHCSPSARVTFFTDNSY
notes: Transiently expressed on 293 cells; also called entire human FLT4 receptor

— patent US6897294 (Genentech, dated 2005)
